B1: Strep-tagged Fab88 (Fab, V domains shown)
VH: QLQLQESGPGLVKPSQTLSLTCTVSGGSISSGSYNWTWIRQPAGKGLEWIGRIYNSGSTNYNPSLKSRVTISVDTSKNQLSLKVRSVTAADTAVYYCARHCSGGTCYPKYYYGMDVWGQGTTVTVSS
VL: QSALTQPPSVSEAPRQRVTISCSGSSSNIGNNAVNWYQQFPGKAPKLLIYYDDLLPSGVSDRFSGSKSGTSASLAISGVQSEDEADYYCAAWDDSLNVVVFGGGTKLTVL
notes: source: HEK293T, transient transfection, purified (Strep-Tactin)
B2: Strep-tagged Fab316 (Fab, V domains shown)
VH: not shown
VL: QAVLTQPPSASGSPGQSVTISCTGTSSDVGGYNYVSWYQQHPGKAPKLMIYEVSKRPSGVPDRFSGSKSGNTASLTVSGLQAEDEADYYCSSYAGSNHWVFGGGTKLTVL
B3: Strep-tagged Fab 158 (Fab, V domains shown)
VH: EVQLLESGGDLIQPGGSLRLSCAASGVTVSSNYMSWVRQAPGKGLEWVSIIYPGGSTFYADSVKGRFTISRDNSKNTLYLQMHSLRAEDTAVYYCARDLGSGDMDVWGKGTTVTVSS
VL: DIVMTQSPSFLSASVGDRVTITCRASQGISSYLAWYQQKPGKAPKLLIQAASTLQSGVPSRFSGSGSGTEFTLTISSLQPEDFATYYCQQLNSYRYTFGQGTKVEIK
notes: also called Fab58 (as printed in the crystallization paragraph); source: HEK293T, transient transfection, purified (Strep-Tactin)
B4: Fab 253H165L (Fab, V domains shown)
VH: not shown
VL: DIVMTQSPGTLSLSPGERATLSCRASQSVRSSYLAWYQQKPGQAPRLLIYGASRRGTGIPDRFSGSGSGTDFTLTISRLEPEDFAVYYCQQYGSSPWTFGQGTKVEIK
notes: also called chimera 253H165L
B5: Strep-tagged Fab150 (Fab, V domains shown)
VH: QVQLVESGGGLIQPGGSLRLSCAASGVTVSSNYMSWVRQAPGKGLEWVSIIYSGGTTYYADSVKGRFTISRDSSMNTLYLQMNSLRAEDTAVYYCARDLMVYGIDVWGQGTTVTVSS
VL: EIVMTQSPSSLSASVGDRVTITCRASQGISSYLAWYQQKPGKAPKLLIYAASTLQSGVPSRFSGSGSGTDFTLTISSLQPEDFATYYCQQLDSYPPGYTFGQGTKVDIK
notes: as for B1

Target: T1, SARS-Cov2 Spike ectodomain for structural analysis (SARS-CoV-2 Wuhan-Hu-1 (MN908947), UniProt P0DTC2, RRAR > GSAS at residues 682-685 | KV > PP at residues 986-987)
T1 construct: also called trimeric spike
Assay: cryo-EM structure; spike (S ~0.6 μm) with Fab or IgG (1:6 molar ratio), applied to the grid almost immediately
Conditions: both partners purified

| Binder | stoichiometry N [Fabs/trimer] | binding result |
| --- | --- | --- |
| B1 | 3 | – |
| B2 | 3 | – |
| B3 | – | binds |
| B4 | – | binds |
| B5 | – | binds |

Reference: publication PMC7891125 (Cell, 2021)
